Measured values taken from the supplement of paper PMC9170038.

What follows are sequences tested on MS2 coat protein (assay: apparent KD of MS2 coat protein, switch ON state; designed switch direction (-1 OFF switch, 1 ON switch): 1; higher = weaker reporter binding). Conditions: FMN input: 0 or 200 uM; Eterna round: R93 (includes R88 designs).
In short: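 Binding of SNAP-549-labelled MS2 coat protein was measured on designed RNA switches transcribed on-chip from Illumina sequencing clusters. The protein rose in twofold steps from 0.7 or 1.5 nM to 3 µM, with 0.8–1.5 h per step early on and 10–20 min per step later, in 100 mM Tris-HCl pH 7.5, 80 mM KCl, 4 mM MgCl2, without or with constant ligand. Each design's apparent KD is the median of fits to its normalised cluster binding curves.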
“GGGAAGAAGAGAGAGGAUAUCCAAAGGAAAACAUGAGGAUCACCCAUGUAAAAGGUAGGAAAUUGGGAGAAGGCUCAAAAGAGGG [salish99-ss2-032]” was tested, and the “apparent KD of MS2 coat protein” value was 29 nM.
With “AUUCCAAAUAGUCAGGAUAUCAGAAGUAAGACAUGAGGAUCACCCAUGUACUUAGUAAAAGUAACUGAGAAGGGACAGGGUGUAA [JR_SS002_Sub405]” the “apparent KD of MS2 coat protein” value was 17.4 nM.
With “AAAAAACAUGAGGAUCACCCAUGUAAAAAUAUGGGAGGAUAUGGAAACACGAAAGUGAAACCAGAAGGCUCAAAAG [77%, Mat - Mod of Eli, 17]” the “apparent KD of MS2 coat protein” value was 21.2 nM.
In the case of “GAACCACAUGAGGAUCACCCAUGUCAAAGAAAUCAAGGAUAUGCACAAAAGGAAAUAACUGCAGAAGGUGAACGAA [62%, Redo, 1]”, the “apparent KD of MS2 coat protein” value is reported as 22.6 nM.
“AGGAAACAUGAGGAUCACCCAUGUAUAAAAAUGGGAGGAUAUACAAAGACGAAAGUCAAAGUAGAAGGCCUAAAAA [76%, Meechl, 7]” was tested, and the “apparent KD of MS2 coat protein” value was 18.8 nM.
For “AGGAAACAUGAGGAUCACCCAUGUAAAAGGUGGGUAGGAUAUGCGAAAAGAAAAAGAAAAGCAGAAGGACCAAGAA [62%, Something completely different, 1]”, the “apparent KD of MS2 coat protein” value was 38.7 nM.
“AGAAUAAAAACAGAGGAUAUCCAAAAGAAAACAUGAGGAUCACCCAUGUAAAAGAAAAUAAAAUGGGAGAAGGCUGAAAAAAAGA [Mat - Same State 2 - Eli mod - D98]” was tested, and the “apparent KD of MS2 coat protein” value was 25 nM.
For “GGCCAACAUGAGGAUCACCCAUGUCGCCAAAAUCGAGGAUAUGGGUGCCAGCUCGGGCAGCCAGAAGGCGACAAAA [Qutiqumais]”, the “apparent KD of MS2 coat protein” value was 55.1 nM.
“AGGAAACAUGAGGAUCACCCAUGUAAAGAUGGGCGAGGAUAUCGAAAGAAAAGAAAGAAACGAGAAGGUGCAAAAG [59%, Flamingo, 1]” was tested, and the “apparent KD of MS2 coat protein” value was 409 nM.
For “AACAAUCUAUCUGAGGAUAUCAUGUCAAAGACAUGAGGAUCACCCAUGUCGCAGGAAACUGCUCAUGAGAAGGCAGAUAGAUUGA [SS2: 1128]”, the “apparent KD of MS2 coat protein” value was 11.2 nM.
In the case of “UCCUUACAUGAGGAUCACCCAUGUCGCAGGAAUCAAGGAUAUGGGUCCGCAAUGCGGAAACCAGAAGGUGACAAAA [Edusquanon]”, the “apparent KD of MS2 coat protein” value is reported as 165 nM.
“GAACCACAUGAGGAUCACCCAUGUCUAAAUAUGGGAGGAUAUGCACAAAAGGAAAUAACUGCAGAAGGCCUACGAA [62%, Redo, 3]” was tested, and the “apparent KD of MS2 coat protein” value was 25.7 nM.
“AAAAUAUAAACGGAGGAUAUCCAAAGAACCACAUGAGGAUCACCCAUGUAAAGAAAGAAUAAGUGGGAGAAGGCCGAAAUAAUAA [Designing denovo 27]” was tested, and the “apparent KD of MS2 coat protein” value was 18.9 nM.
In the case of “AAAAAAAAGGGUGAGGAUAUCGAAAAAAAAACAUGAGGAUCACCCAUGUGAAAAAAAAAAAAAUGCGAGAAGGCACUAAAAAAAAA [Same State 2.3]”, the “apparent KD of MS2 coat protein” value is reported as 23.2 nM.
“AAAAGACAUGAGGAUCACCCAUGUAAAAACGUGGGAGGAUAUGCAUGGAAAACAUGCUGUGCAGAAGGCCCGUGUC [SS1 - 22]” was tested, and the “apparent KD of MS2 coat protein” value was 263 nM.
For “GAAAAACAUGAGGAUCACCCAUGUAAAAAUAUGGGAGGAUAUUGAAAGACGAAAGUCAAACAAGAAGGCCUAAAAG [Garnet 2]”, the “apparent KD of MS2 coat protein” value was 22.2 nM.
With “GUAUAUAUAAGACAGGAUAUCCUAAAGUAAACAUGAGGAUCACCCAUGUAAAGAAAGAAACUCAUGGAGAAGGGUCAAUAUAUAC [Mat - Same State 2 - Tesla mod - D82]” the “apparent KD of MS2 coat protein” value was 11.5 nM.
“UAUAAACAUGAGGAUCACCCAUGUAGAAAUAUGGGAGGAUAUACAAAGACGAAAGUCAAAGUAGAAGGCCUAAUAA [Mat - Same State 1 - Mod - D156]” was tested, and the “apparent KD of MS2 coat protein” value was 16.6 nM.
In the case of “GUGUAUAGAAUCGAGGAUAUCCUGUAAUGCACAUGAGGAUCACCCAUGUAAGAGCGAGAAUAAUGGGAGAAGGCGAGUUAUCGGU [JR_SS002_Sub1710]”, the “apparent KD of MS2 coat protein” value is reported as 27.5 nM.
“AGAAAUAAAAGAGAGGAUAUCCAAAAGAAAACAUGAGGAUCACCCAUGUAAAAGAAAAUAAAAUGGGAGAAGGCUCAUGAUAAAG [JL In the Red Helter Skelter 2 mod 1]” was tested, and the “apparent KD of MS2 coat protein” value was 42 nM.
In the case of “UGAAAACAUGAGGAUCACCCAUGUAGAAAUAUGGGAGGAUAUACGAAGACGAAAGUCAAAGUAGAAGGCCUAAAUG [Mat - Same State 1 - Eli mod - D110]”, the “apparent KD of MS2 coat protein” value is reported as 27.6 nM.
For “AAUACACAUGGUCAGGAUAUCGCAGCUAGGACAUGAGGAUCACCCAUGUCGUAAGUAAAAGUAAAUGAGAAGGGACAGGGUGACC [JR_SS002_Sub406]”, the “apparent KD of MS2 coat protein” value was 133 nM.
With “ACUAUACAUGAGGAUCACCCAUGUCAGGUGGGACUAGGAUAUCAUAAGCCAGAGUAAGUAUGAGAAGGAGUAGAAA [JR_SS001_Sub305]” the “apparent KD of MS2 coat protein” value was 73.2 nM.
In the case of “GAUAUACAUGAGGAUCACCCAUGUUAGGUGGGUCAAGGAUAUUGAUAUAAAUAAAAAACUCGAGAAGGUGAAUAAA [JR_SS001_Sub020]”, the “apparent KD of MS2 coat protein” value is reported as 298 nM.
“AAAGGGAUUACGGAGGAUAUGGAAAAAAAAACAUGAGGAUCACCCAUGUCAAAAAAAAAAAAGGACCAGAAGGCCGUAAUCUCAAA [hsl_samestate2]” was tested, and the “apparent KD of MS2 coat protein” value was 19.9 nM.
In the case of “UGGAGACAUGAGGAUCACCCAUGUGAGAAGAGGCGAGGAUAUCGAAAGAAAGAAGAGAAACGAGAAGGCGCGAGUG [salish99-SS1-042]”, the “apparent KD of MS2 coat protein” value is reported as 40.3 nM.
“GGGACCAGCGUCAAGGAUAUUCAUAUAUAAACAUGAGGAUCACCCAUGUAGGCCAGGAGGCCUUGGGAGAAGGUGAGUUGGCUCG [Xegedibe]” was tested, and the “apparent KD of MS2 coat protein” value was 40.5 nM.
In the case of “UAUAGACAUGAGGAUCACCCAUGUAGAAUUAUGGGAGGAUAUACAAAGACGAGAGUCAGAGUAGAAGGCCUAGGAA [salish99-ss1-152]”, the “apparent KD of MS2 coat protein” value is reported as 24 nM.
For “AACAAUCUAUCUGAGGAUAUCAUGUAAAAAACAUGAGGAUCACCCAUGUCUAGGAAAACUAGAUAUGAGAAGGCAGAUAGAUUGA [SS1 - 596]”, the “apparent KD of MS2 coat protein” value was 110 nM.
In the case of “AAUAUAUUAAGUGAGGAUAUCAUAGGAAAAACAUGAGGAUCACCCAUGUGGGAAACCUGGUCGGGUGAGAAGGUACUUAAUAUAU [Samwise Clockwise 31 - Jieux - Same State 2]”, the “apparent KD of MS2 coat protein” value is reported as 69.2 nM.
With “GAAGACAUAGUUCAGGAUAUAGGAAUAGUCACAUGAGGAUCACCCAUGUGCAUUUAUAUGCGCACUUAGAAGGGAGGUAGUUAUA [SameState2 Malc#22]” the “apparent KD of MS2 coat protein” value was 32.2 nM.
For “GAGGACAUAGUAUAGGAUAUAUGAAUAAUUACAUGAGGAUCACCCAUGUCCAUUUAUAUGGGAACAUAGAAGGGUGGUAGUUGUC [Mat - Same state - Malcolm Mod - D130]”, the “apparent KD of MS2 coat protein” value was 73 nM.
In the case of “AUAAAACAUGAGGAUCACCCAUGUAAAAAAGCAUGAGGAUAUAUAAAAAGAAAAAGAAGAAUAGAAGGCAUAAUAA [JR_SS001_Sub1223]”, the “apparent KD of MS2 coat protein” value is reported as 60.7 nM.
In the case of “AAAACACAUGAGGAUCACCCAUGUGAAAACAUGGGAGGAUAUGCAUGGAAAACAUGCUAUGCAGAAGGCUCAUGUG [SS1 - 7]”, the “apparent KD of MS2 coat protein” value is reported as 83.8 nM.
For “GAAGACAUAGUUCAGGAUAUGGUAAUAGUCACAUGAGGAUCACCCAUGUGCAUUUAUAUGCGCGAUCAGAAGGGAGGUAGAUAAG [Mat - Same state - Malcolm Mod - D116]”, the “apparent KD of MS2 coat protein” value was 18.6 nM.
With “AAAACACAUGAGGAUCACCCAUGUGCAAAAUUCGCAGGAUAUUCCUCAAUUAAAUGAGAGGAAGAAGGGUGAUAAA [Nob's Hobby 33 - Jieux - Same State 1]” the “apparent KD of MS2 coat protein” value was 18.9 nM.
For “AUAAUAUUAAGCAAGGAUAUACUAAAGUAAACAUGAGGAUCACCCAUGUAAAAAAAAAAACUCAUGUAGAAGGUGCAUAAAUAAA [moonwalk 10]”, the “apparent KD of MS2 coat protein” value was 8.92 nM.
For “CGGAGACAUGAGGAUCACCCAUGUGAGAAGAGGCGAGGAUAUGGAAAUAAAGAAGAGAAAUGAGAAGGCGCGAGCC [salish99-SS1-082]”, the “apparent KD of MS2 coat protein” value was 40.6 nM.
With “AAUACAAAUAGUCAGGAUAUCAAAAAUAAGACAUGAGGAUCACCCAUGUAAUAAGUAAAAGUAAAUGAGAAGGGACAGGGUGAAA [JR_SS002_Sub401]” the “apparent KD of MS2 coat protein” value was 530 nM.
In the case of “AAAUAAAAAAAAAAGGAUAUUCAUGUGAAAACAUGAGGAUCACCCAUGUAAAAAAAUAAAAAUAAAAAGAAGGAAAAAUAAAAAA [SS2: 86 No MS2]”, the “apparent KD of MS2 coat protein” value is reported as 571 nM.
“AAGAAACAUGAGGAUCACCCAUGUGAGAAUAACACAGGAUAUGCGAAAAGAAACAAAGAAGCAGAAGGGUGAAGAA [Mat - Same State 1 - Tesla mod - 54]” was tested, and the “apparent KD of MS2 coat protein” value was 20 nM.
For “GAAAAACAUGAGGAUCACCCAUGUAGAAAUAUGGGAGGAUAUACAAAGACGAAAGUCAAAGUAGAAGGCCUUAAAG [JL S1 M-MoE mod 1 In the Red]”, the “apparent KD of MS2 coat protein” value was 28.3 nM.
